Measured values: article PMC3181147 (Structure (London, England : 1993), 2010)

Target: the molecule itself
Test: AUC

B1: phosphorylated intracellular domain of PknB_(1-330) (kinase domain and juxtamembrane linker) (domain or fragment)
chain: MTTPSHLSDRYELGEILGFGGMSEVHLARDLRLHRDVAVKVLRADLARDPSFYLRFRREAQNAAALNHPAIVAVYDTGEAETPAGPLPYIVMEYVDGVTLRDIVHTEGPMTPKRAIEVIADACQALNFSHQNGIIHRDVKPANIMISATNAVKVMDFGIARAIADSGNSVTQTAAVIGTAQYLSPEQARGDSVDARSDVYSLGCVLYEVLTGEPPFTGDSPVSVAYQHVREDPIPPSARHEGLSADLDAVVLKALAKNPENRYQTAAEMRADLVRVHNGEPPEAPKVLTDAERTSLLSSAAGNLSGPRTDPLPRQDLDDTDRDRSIGSVG
- Kd: ~2900 µM
